From patent publication US20200109211A1 (ELSALYS BIOTECH, published 2020)

Assays:
[1] = target: T1, recombinant human CD160 protein, soluble form, with a C-terminal tag of 6 histidine residues (R&D SYSTEMS) (human, UniProt O95971 27-159, limits assumed, biotinylated with EZ-Link sulfo-NHS-LC-biotin for BLI and ELISA; not biotinylated when immobilised on the CM5 chip for SPR); assay: BLI, biotinylated CD160 at 10 nM on streptavidin sensor, antibody 3.13-100 nM
T1 construct: domain: soluble form; Bought protein; also called hCD160-his; biotinylated CD160
T1 sequence: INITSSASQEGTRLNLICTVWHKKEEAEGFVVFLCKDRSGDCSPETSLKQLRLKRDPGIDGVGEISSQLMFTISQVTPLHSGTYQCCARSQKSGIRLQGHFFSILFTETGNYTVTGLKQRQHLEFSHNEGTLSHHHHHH
Experimental: (§1) All the experiments were carried out at 30° C. in the running buffer recommended by Fortebio (PBS with 0.1% (p/v) of bovine serum albumin (BSA) and 0.02% (v/v) Tween-20). This buffer was also used for diluting the various ligands and analytes. The samples deposited in a 96-well microplate (cat #738-0026, Dutscher) were shaken at 1000 revolutions per minute.
(§2) The dissociation constants and the association (kₒₙ) and dissociation (kdis) rate constants for each antibody were calculated by applying a 1:1 interaction model, with overall mathematical modelling of curves (fit) (Rmax bound by the sensor) on the ForteBio 9.0 data analysis software.

[2] = target: T2, human CD160 (CD160 GPI isoform) on cells (human, UniProt O95971 25-159, GPI anchor); assay: cell-based or functional assay
T2 sequence (looked up): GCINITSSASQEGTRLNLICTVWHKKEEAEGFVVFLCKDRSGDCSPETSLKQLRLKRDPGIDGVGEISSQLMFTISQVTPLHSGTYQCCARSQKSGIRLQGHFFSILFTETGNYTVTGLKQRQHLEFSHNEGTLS

[3] = target: T1, recombinant human CD160 protein, …; assay: BLI
[4] = target: T1, recombinant human CD160 protein, …; assay: BLI, biotinylated CD160 at 10 nM on streptavidin sensor, antibody 3.13-100 nM; remark: listed apart in the source
[5] = target: T1, recombinant human CD160 protein, …; assay: SPR (Biacore), design close to Example 2
[6] = target: T1, recombinant human CD160 protein, …; assay: BLI (repeats Table 9)
[7] = target: T1, recombinant human CD160 protein, …; assay: BLI (repeats Table 8)
[8] = target: T1, recombinant human CD160 protein, …; assay: BLI, biotinylated CD160 at 10 nM on streptavidin sensor, antibody 3.13-100 nM; remark: listed apart in the source
[9] = target: T1, recombinant human CD160 protein, …; assay: BLI (Octet K2), biotinylated hCD160-His on streptavidin sensor, antibody as analyte
Experimental: as §1
Between the measurements, the surfaces of the biosensor were regenerated by exposing them to 3 cycles of 5 sec in 10 mM glycine, pH 2, followed by 5 sec in running buffer. The association and dissociation phases were measured for 300 seconds. All the measurements were corrected for the basic drift by subtracting a reference well with a ligand subjected only to the running buffer.
as §2

[10] = target: T1, recombinant human CD160 protein, …; assay: BLI, biotinylated CD160 at 10 nM on streptavidin sensor, antibody 3.13-100 nM; remark: listed apart in the source
Experimental: as §2

[11] = target: T1, recombinant human CD160 protein, …; assay: BLI (repeats Table 7)

B1: F04 in the IgG1 E345K format (antibody)
heavy: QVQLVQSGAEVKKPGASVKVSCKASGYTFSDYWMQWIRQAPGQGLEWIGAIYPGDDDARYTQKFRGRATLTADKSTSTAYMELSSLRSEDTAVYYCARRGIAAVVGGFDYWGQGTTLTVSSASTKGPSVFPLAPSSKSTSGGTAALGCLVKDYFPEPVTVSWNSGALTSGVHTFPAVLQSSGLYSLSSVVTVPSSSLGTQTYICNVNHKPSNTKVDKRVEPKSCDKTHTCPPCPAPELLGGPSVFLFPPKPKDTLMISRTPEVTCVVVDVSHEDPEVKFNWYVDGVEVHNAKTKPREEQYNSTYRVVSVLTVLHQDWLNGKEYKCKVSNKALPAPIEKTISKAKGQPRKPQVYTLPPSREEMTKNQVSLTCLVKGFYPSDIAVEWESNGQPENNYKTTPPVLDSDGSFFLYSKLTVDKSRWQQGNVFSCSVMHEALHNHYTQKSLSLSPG
light: EIVLTQSPATLSLSPGERATLSCRASQSISNHLHWYQQKPGQAPRLLIKYASQSISGIPARFSGSGSGTDFTLTISSLEPEDFAVYFCQQSNSWPLTFGGGTKVEIKRTVAAPSVFIFPPSDEQLKSGTASVVCLLNNFYPREAKVQWKVDNALQSGNSQESVTEQDSKDSTYSLSSTLTLSKADYEKHKVYACEVTHQGLSSPVTKSFNRGEC
notes: also called ELB02113
Kd [1]: 1.55 nM | koff [1]: 0.000662 s⁻¹ | kon [1]: 427000 M⁻¹ s⁻¹ | EC50 of IFN-gamma production by NK cells, additional improvement against the IgG1 variants [2]: 2 logs | EC50 of IFN-gamma production by NK cells, improvement against ELB02101 [2]: 4 logs

B2: F04 in the IgG1 format (antibody)
heavy: not shown
light: EIVLTQSPATLSLSPGERATLSCRASQSISNHLHWYQQKPGQAPRLLIKYASQSISGIPARFSGSGSGTDFTLTISSLEPEDFAVYFCQQSNSWPLTFGGGTKVEIKRTVAAPSVFIFPPSDEQLKSGTASVVCLLNNFYPREAKVQWKVDNALQSGNSQESVTEQDSKDSTYSLSSTLTLSKADYEKHKVYACEVTHQGLSSPVTKSFNRGEC
notes: also called ELB02103
Gain in KD/respective IgG [3]: 2.1 fold | Kd [4]: 1.43 nM | koff [4]: 0.000531 s⁻¹ | kon [4]: 371000 M⁻¹ s⁻¹ | EC50 of NK cell activation (IFN-γ, CD69), improvement against ELB02101 [2]: 2 to 3 logs | Gain in KD/respective IgG [5]: 3.3 fold | Kd [5]: 3.6 nM | koff [5]: 0.000726 s⁻¹ | kon [5]: 200000 M⁻¹ s⁻¹ | Kd [6]: 1.43 nM | koff [6]: 0.000531 s⁻¹ | kon [6]: 371000 M⁻¹ s⁻¹

B3: F04 IgG4 S228P/R409K (antibody)
heavy: QVQLVQSGAEVKKPGASVKVSCKASGYTFSDYWMQWIRQAPGQGLEWIGAIYPGDDDARYTQKFRGRATLTADKSTSTAYMELSSLRSEDTAVYYCARRGIAAVVGGFDYWGQGTTLTVSSASTKGPSVFPLAPCSRSTSESTAALGCLVKDYFPEPVTVSWNSGALTSGVHTFPAVLQSSGLYSLSSVVTVPSSSLGTKTYTCNVDHKPSNTKVDKRVESKYGPPCPPCPAPEFLGGPSVFLFPPKPKDTLMISRTPEVTCVVVDVSQEDPEVQFNWYVDGVEVHNAKTKPREEQFNSTYRVVSVLTVLAQDWLNGKEYKCKVSNKGLPSSIEKTISKAKGQPREPQVYTLPPSQEEMTKNQVSLTCLVKGFYPSDIAVEWESNGQPENNYKTTPPVLDSDGSFFLYSKLTVDKSRWQEGNVFSCSVMHEALHNQYTQKSLSLSLG
light: EIVLTQSPATLSLSPGERATLSCRASQSISNHLHWYQQKPGQAPRLLIKYASQSISGIPARFSGSGSGTDFTLTISSLEPEDFAVYFCQQSNSWPLTFGGGTKVEIKRTVAAPSVFIFPPSDEQLKSGTASVVCLLNNFYPREAKVQWKVDNALQSGNSQESVTEQDSKDSTYSLSSTLTLSKADYEKHKVYACEVTHQGLSSPVTKSFNRGEC
notes: also called ELB01106
Kd [7]: 1.63 nM | koff [7]: 0.000736 s⁻¹ | kon [7]: 453000 M⁻¹ s⁻¹ | Gain in KD/respective IgG [3]: 1.8 fold | Kd [8]: 1.63 nM | koff [8]: 0.000736 s⁻¹ | kon [8]: 453000 M⁻¹ s⁻¹ | Gain in KD/respective IgG [5]: 3.5 fold | Kd [5]: 4.1 nM | koff [5]: 0.000721 s⁻¹ | kon [5]: 176000 M⁻¹ s⁻¹

B4: H7 IgG4 S228P/R409K (antibody)
heavy: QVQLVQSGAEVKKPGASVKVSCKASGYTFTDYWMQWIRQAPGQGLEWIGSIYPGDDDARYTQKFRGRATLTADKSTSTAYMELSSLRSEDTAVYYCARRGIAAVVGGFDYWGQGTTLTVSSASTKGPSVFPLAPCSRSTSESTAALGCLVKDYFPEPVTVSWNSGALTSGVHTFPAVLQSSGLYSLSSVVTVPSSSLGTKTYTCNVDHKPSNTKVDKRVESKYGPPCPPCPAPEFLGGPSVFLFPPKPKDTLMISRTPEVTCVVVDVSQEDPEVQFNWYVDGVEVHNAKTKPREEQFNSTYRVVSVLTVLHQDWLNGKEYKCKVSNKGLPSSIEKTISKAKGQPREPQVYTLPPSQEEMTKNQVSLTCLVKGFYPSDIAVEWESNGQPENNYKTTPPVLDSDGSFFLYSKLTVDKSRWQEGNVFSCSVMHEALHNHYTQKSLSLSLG
light: EIVLTQSPATLSLSPGERATLSCRASQSISNHLHWYQQKPGQAPRLLIKYASQSISGIPARFSGSGSGTDFTLTISSLEPEDFAVYFCQQSNSWPLTFGGGTKVEIKRTVAAPSVFIFPPSDEQLKSGTASVVCLLNNFYPREAKVQWKVDNALQSGNSQESVTEQDSKDSTYSLSSTLTLSKADYEKHKVYACEVTHQGLSSPVTKSFNRGEC
notes: also called ELB01101; H7 IgG4 WT
Binding response, at 50 nM of anti-CD160 [9]: 0.6 nm (arbitrary units) | Kd [9]: 4.49 nM | koff [9]: 0.00157 s⁻¹ | kon [9]: 350000 M⁻¹ s⁻¹ | Kd [10]: 2.61 nM | koff [10]: 0.00123 s⁻¹ | kon [10]: 469000 M⁻¹ s⁻¹ | Kd [5]: 13.1 nM | koff [5]: 0.00285 s⁻¹ | kon [5]: 218000 M⁻¹ s⁻¹ | Kd [11]: 2.61 nM | koff [11]: 0.00123 s⁻¹ | kon [11]: 469000 M⁻¹ s⁻¹

B5: H7 IgG4 S228P/R409K/H310A/H435Q (antibody)
heavy: QVQLVQSGAEVKKPGASVKVSCKASGYTFTDYWMQWIRQAPGQGLEWIGSIYPGDDDARYTQKFRGRATLTADKSTSTAYMELSSLRSEDTAVYYCARRGIAAVVGGFDYWGQGTTLTVSSASTKGPSVFPLAPCSRSTSESTAALGCLVKDYFPEPVTVSWNSGALTSGVHTFPAVLQSSGLYSLSSVVTVPSSSLGTKTYTCNVDHKPSNTKVDKRVESKYGPPCPPCPAPEFLGGPSVFLFPPKPKDTLMISRTPEVTCVVVDVSQEDPEVQFNWYVDGVEVHNAKTKPREEQFNSTYRVVSVLTVLAQDWLNGKEYKCKVSNKGLPSSIEKTISKAKGQPREPQVYTLPPSQEEMTKNQVSLTCLVKGFYPSDIAVEWESNGQPENNYKTTPPVLDSDGSFFLYSKLTVDKSRWQEGNVFSCSVMHEALHNQYTQKSLSLSLG
light: EIVLTQSPATLSLSPGERATLSCRASQSISNHLHWYQQKPGQAPRLLIKYASQSISGIPARFSGSGSGTDFTLTISSLEPEDFAVYFCQQSNSWPLTFGGGTKVEIKRTVAAPSVFIFPPSDEQLKSGTASVVCLLNNFYPREAKVQWKVDNALQSGNSQESVTEQDSKDSTYSLSSTLTLSKADYEKHKVYACEVTHQGLSSPVTKSFNRGEC
notes: also called ELB01102; H7 IgG4 H310A-H435Q
Kd [7]: 2.91 nM | koff [7]: 0.00148 s⁻¹ | kon [7]: 507000 M⁻¹ s⁻¹ | Kd [8]: 2.91 nM | koff [8]: 0.00148 s⁻¹ | kon [8]: 507000 M⁻¹ s⁻¹ | Kd [5]: 14.5 nM | koff [5]: 0.00297 s⁻¹ | kon [5]: 205000 M⁻¹ s⁻¹

B6: chimerized antibody issued from CL1-R2 in the human IgG1 format (antibody, V domains shown)
VH: QVHLQQSGAELARPGASVKLSCKASGYTFTDYWMQWIKQRPGQGLEWIGSIYPGDDDARYTQKFRGKATLTADKSSSTAYMQLSSLASEDSAVYYCARRGIAAVVGGFDYWGQGTTLTVSS
VL: DIVLTQSPATLSVTPGNSVSLSCRASQSISNHLHWYQQKSHESPRLLIKYASQSISGIPSRFSGSGSGTDFTLSINSVETEDFGMYFCQQSNSWPLTFGAGTKLELK
notes: also called chIgG1; chimeric IgG1
Binding response, at 50 nM of anti-CD160 [9]: 0.41 nm (arbitrary units) | Kd [9]: 14.3 nM | koff [9]: 0.00297 s⁻¹ | kon [9]: 208000 M⁻¹ s⁻¹

B7: chimerized antibody issued from CL1-R2 in the human IgG4 format (antibody, V domains shown)
VH: QVHLQQSGAELARPGASVKLSCKASGYTFTDYWMQWIKQRPGQGLEWIGSIYPGDDDARYTQKFRGKATLTADKSSSTAYMQLSSLASEDSAVYYCARRGIAAVVGGFDYWGQGTTLTVSS
VL: DIVLTQSPATLSVTPGNSVSLSCRASQSISNHLHWYQQKSHESPRLLIKYASQSISGIPSRFSGSGSGTDFTLSINSVETEDFGMYFCQQSNSWPLTFGAGTKLELK
notes: also called chIgG4; chimeric IgG4
Binding response, at 50 nM of anti-CD160 [9]: 0.41 nm (arbitrary units) | Kd [9]: 14.8 nM | koff [9]: 0.00323 s⁻¹ | kon [9]: 218000 M⁻¹ s⁻¹

B8: CL1-R2 murine monoclonal anti-human CD160 antibody (antibody, V domains shown)
VH: QVHLQQSGAELARPGASVKLSCKASGYTFTDYWMQWIKQRPGQGLEWIGSIYPGDDDARYTQKFRGKATLTADKSSSTAYMQLSSLASEDSAVYYCARRGIAAVVGGFDYWGQGTTLTVSS
VL: DIVLTQSPATLSVTPGNSVSLSCRASQSISNHLHWYQQKSHESPRLLIKYASQSISGIPSRFSGSGSGTDFTLSINSVETEDFGMYFCQQSNSWPLTFGAGTKLELK
notes: Murine IgG1; also called parental CL1-R2; murine anti-CD160 IgG1
Binding response, at 50 nM of anti-CD160 [9]: 0.6 nm (arbitrary units) | Kd [9]: 15.4 nM | koff [9]: 0.00283 s⁻¹ | kon [9]: 183000 M⁻¹ s⁻¹
